Experimental data as given in paper PMC8546571, “Methylation of PhoP by CheR Regulates Salmonella Virulence” (mBio, 2021).
Positions count from the first letter of the chain named. Numbers in names are those of the source.

B1: wild-type PhoP (6×His-tagged, recombinant) (natural protein)
chain: MMRVLVVEDNALLRHHLKVQLQDSGHQVDAAEDAREADYYLNEHLPDIAIVDLGLPDEDGLSLIRRWRSSDVSLPVLVLTAREGWQDKVEVLSSGADDYVTKPFHIEEVMARMQALMRRNSGLASQVINIPPFQVDLSRRELSVNEEVIKLTAFEYTIMETLIRNNGKVVSKDSLMLQLYPDAELRESHTIDVLMGRLRKKIQAQYPHDVITTVRGQGYLFELR
notes: PhoP, response regulator of the PhoP/PhoQ two-component system, S. Typhimurium strain 14028S; phoP PCR amplified from genomic DNA and cloned into pQE80; also called PhoP WT; source: E. coli BL21, purified (Ni-NTA); not shown: His6, C-terminal, kept
B2: PhoP E8A variant (natural protein)
chain: B1 chain with E8A
notes: PhoP, S. Typhimurium strain 14028S, with E8A; source: E. coli BL21, purified (Ni-NTA); not shown: His6, C-terminal, kept
B3: PhoP D9A variant (natural protein)
chain: B1 chain with D9A
notes: PhoP, S. Typhimurium strain 14028S, with D9A; source: E. coli BL21, purified (Ni-NTA); not shown: His6, C-terminal, kept
B4: PhoP E107A variant (natural protein)
chain: B1 chain with E107A
notes: PhoP, S. Typhimurium strain 14028S, with E107A; source: E. coli BL21, purified (Ni-NTA); not shown: His6, C-terminal, kept
B5: PhoP purified from the bacteria with an endogenous level of cheR expression (natural protein)
chain: B1 chain
notes: PhoP, S. Typhimurium strain 14028S, His-tagged and purified from Salmonella; also called PhoP from control cells; PhoP isolated from the wild-type strain; source: S. Typhimurium with an endogenous level of cheR expression, purified (His tag); not shown: His6, C-terminal, kept

What was measured:
[1] = tested on: PhoP from control Salmonella cells (Salmonella enterica serovar Typhimurium 14028S); test: ITC; conditions: EMSA: 25 mM Tris-HCl pH 8.0, 50 mM KCl, 5 mM MgCl2, 0.5 mM EDTA, 10% glycerol, room temp 20 min, 1.6 pmol probe in 10 ul; ITC: 6.15 uM DNA into 0.6 uM PhoP …
[2] = tested on: PhoP from cheR-overexpressing cells (methylated PhoP) (Salmonella enterica serovar Typhimurium 14028S); test: ITC; conditions: EMSA: 25 mM Tris-HCl pH 8.0, 50 mM KCl, 5 mM MgCl2, 0.5 mM EDTA, 10% glycerol, room temp 20 min, 1.6 pmol probe in 10 ul; ITC: 6.15 uM DNA into 0.6 uM PhoP …
[3] = molecular target: the molecule itself; test: cross-linking; purified His-tagged PhoP incubated with 1 mM DSS in 50 mM HEPES-Na pH 7.5, 150 mM NaCl, 10 mM MgCl2, 20% glycerol, 0.05% Tween 20, 25°C, 30 min; Western blot with anti-His antibody; monomer to dimer

Molecule | Kd [1] [nM] | Kd [2] [nM] | binding result [3]
phoP promoter DNA / PhoP box consensus (ITC) | 0.122 | 0.476 | –
B1 | – | – | binds
B2 | – | – | binds
B3 | – | – | binds
B4 | – | – | binds
B5 | – | – | binds
